Experimental data: patent US20240226163A1 (Regeneron, published 2024)

Legend:
[1] = target: HLA-A*02:01 presenting CARD8 170-178 peptide (…) (human); test: cell-based or functional assay
[2] = target: HLA-A*02:01 presenting MAGE-A4 286-294 peptide (…) (human); test: cell-based or functional assay
[3] = target: HLA-A*02:01 presenting PCDHGC3 337-345 peptide (…) (human); test: cell-based or functional assay
[4] = target: HLA-A*02:01 presenting PSME2 145-153 peptide (…) (human); test: cell-based or functional assay
[5] = target: HLA-A*02:01 presenting TEP1 2156-2164 peptide (…) (human); test: cell-based or functional assay
[6] = target: HLA-A*02:01 presenting SHTN1 198-206 peptide (…) (human); test: cell-based or functional assay
[7] = target: HLA-A*02:01 presenting FN1 2182-2190 peptide (…) (human); test: cell-based or functional assay
[8] = target: HLA-A*02:01 presenting PLEKHH2 790-798 peptide (…) (human); test: cell-based or functional assay
[9] = target: HLA-A*02:01 presenting RABGAP1L 408-416 peptide (…) (human); test: cell-based or functional assay
[10] = target: HLA-A*02:01 presenting MRPL37 334-342 peptide (…) (human); test: cell-based or functional assay
[11] = target: HLA-A*02:01 presenting SMIM11A 4-12 peptide (…) (human); test: cell-based or functional assay
[12] = target: T1, HLA-A*02:01 presenting HEATR5A 1925-1933 peptide (…) (human); test: cell-based or functional assay
[13] = target: HLA-A*02:01 presenting AOX1 795-803 peptide (…) (human); test: cell-based or functional assay
[14] = target: HLA-A*02:01 presenting NBAS 2063-2071 peptide (…) (human); test: cell-based or functional assay
[15] = target: HLA-A*02:01 presenting CNOT1 1965-1973 peptide (…) (human); test: cell-based or functional assay
[16] = target: T2, HLA-A*02:01 presenting CARD8 170-178 peptide (…) (human); test: flow cytometry, peptide-pulsed T2 cells;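 further: ratio of peak mean fluorescence intensity across a 12-point threefold antibody dilution series to the MFI with secondary antibody only, live-gated cells by flow cytometry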
T2 construct: On peptide-pulsed T2 cells; also called T2 Pulsed CARD8 170-178
Experimental: (§1) Samples were run on an Intellicyt iQue flow cytometer (Intellicyt) and results were analyzed using Forecyte analysis software (Intellicyte) to calculate the mean fluorescent intensity (MFI) after gating for live cells. MFI values were plotted in Graphpad Prism using a four-parameter logistic equation over a 12-point response curve to calculate EC₅₀ values. The secondary antibody alone (i.e. no primary antibody) for each dose-response curve is also included in the analysis as a continuation of the three-fold serial dilution and is represented as the lowest dose. The signal to noise (S/N) was determined by taking the ratio of the highest MFI on the dose response curve to the MFI in the secondary alone wells.

[17] = target: T3, HLA-A*02:01 presenting MAGE-A4 286-294 peptide (…) (human); test: flow cytometry, peptide-pulsed T2 cells;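 further: ratio of peak mean fluorescence intensity across a 12-point threefold antibody dilution series to the MFI with secondary antibody only, live-gated cells by flow cytometry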
T3 construct: On peptide-pulsed T2 cells
Experimental: as §1

[18] = target: T4, HLA-A*02:01 presenting PCDHGC3 337-345 peptide (…) (human); test: flow cytometry, peptide-pulsed T2 cells;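 further: ratio of peak mean fluorescence intensity across a 12-point threefold antibody dilution series to the MFI with secondary antibody only, live-gated cells by flow cytometry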
T4 construct: On peptide-pulsed T2 cells; also called T2 Pulsed PCDHGC3 337-345
Experimental: as §1

[19] = target: T5, HLA-A*02:01 presenting PSME2 145-153 peptide (…) (human); test: flow cytometry, peptide-pulsed T2 cells;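 further: ratio of peak mean fluorescence intensity across a 12-point threefold antibody dilution series to the MFI with secondary antibody only, live-gated cells by flow cytometry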
T5 construct: On peptide-pulsed T2 cells; also called T2 Pulsed PSME2 145-153
Experimental: as §1

[20] = target: T6, HLA-A*02:01 presenting TEP1 2156-2164 peptide (…) (human); test: flow cytometry, peptide-pulsed T2 cells
T6 construct: On peptide-pulsed T2 cells; also called T2 Pulsed TEP1 2156-2164
Experimental: as §1

[21] = target: T7, HLA-A*02:01 presenting SHTN1 198-206 peptide (…) (human); test: flow cytometry, peptide-pulsed T2 cells
T7 construct: On peptide-pulsed T2 cells; also called T2 Pulsed SHTN1 198-206
Experimental: as §1

[22] = target: T8, HLA-A*02:01 presenting FN1 2182-2190 peptide (…) (human); test: flow cytometry, peptide-pulsed T2 cells
T8 construct: On peptide-pulsed T2 cells; also called T2 Pulsed FN1 2182-2190
Experimental: as §1

[23] = target: T9, HLA-A*02:01 presenting PLEKHH2 790-798 peptide (…) (human); test: flow cytometry, peptide-pulsed T2 cells
T9 construct: On peptide-pulsed T2 cells; also called T2 Pulsed PLEKHH2 790-798
Experimental: as §1

[24] = target: T10, HLA-A*02:01 presenting RABGAP1L 408-416 peptide (…) (human); test: flow cytometry, peptide-pulsed T2 cells
T10 construct: On peptide-pulsed T2 cells; also called T2 Pulsed RABGAP1L 408-416
Experimental: as §1

[25] = target: T11, HLA-A*02:01 presenting MRPL37 334-342 peptide (…) (human); test: flow cytometry, peptide-pulsed T2 cells
T11 construct: On peptide-pulsed T2 cells; also called T2 Pulsed MRPL37 334-342
Experimental: as §1

[26] = target: T12, HLA-A*02:01 presenting SMIM11A 4-12 peptide (…) (human); test: flow cytometry, peptide-pulsed T2 cells
T12 construct: On peptide-pulsed T2 cells; also called T2 Pulsed SMIM11A 4-12
Experimental: as §1

[27] = target: T1, HLA-A*02:01 presenting HEATR5A …; test: flow cytometry, peptide-pulsed T2 cells
Experimental: as §1

[28] = target: T13, HLA-A*02:01 presenting AOX1 795-803 peptide (…) (human); test: flow cytometry, peptide-pulsed T2 cells
T13 construct: On peptide-pulsed T2 cells; also called T2 Pulsed AOX1 795-803
Experimental: as §1

[29] = target: T14, HLA-A*02:01 presenting NBAS 2063-2071 peptide (…) (human); test: flow cytometry, peptide-pulsed T2 cells
T14 construct: On peptide-pulsed T2 cells; also called T2 Pulsed NBAS 2063-2071
Experimental: as §1

[30] = target: T15, HLA-A*02:01 presenting CNOT1 1965-1973 peptide (…) (human); test: flow cytometry, peptide-pulsed T2 cells
T15 construct: On peptide-pulsed T2 cells; also called T2 Pulsed CNOT1 1965-1973
Experimental: as §1

EC50 (M), Jurkat/NF-κB-Luc reporter with pulsed T2 cells [1]: > 2e-08 M
Fold change, Jurkat/NF-κB-Luc reporter with pulsed T2 cells [1]: 1.8 fold
EC50 (M), Jurkat/NF-κB-Luc reporter with pulsed T2 cells [2]: 3e-10 M
Fold change, Jurkat/NF-κB-Luc reporter with pulsed T2 cells [2]: 75.3 fold
EC50 (M), Jurkat/NF-κB-Luc reporter with pulsed T2 cells [3]: > 2e-08 M
Fold change, Jurkat/NF-κB-Luc reporter with pulsed T2 cells [3]: 1 fold
EC50 (M), Jurkat/NF-κB-Luc reporter with pulsed T2 cells [4]: > 2e-08 M
Fold change, Jurkat/NF-κB-Luc reporter with pulsed T2 cells [4]: 1 fold
EC50 (M), Jurkat/NF-κB-Luc reporter with pulsed T2 cells [5]: > 2e-08 M
Fold change, Jurkat/NF-κB-Luc reporter with pulsed T2 cells [5]: 1.9 fold
EC50 (M), Jurkat/NF-κB-Luc reporter with pulsed T2 cells [6]: 3.5e-09 M
Fold change, Jurkat/NF-κB-Luc reporter with pulsed T2 cells [6]: 75.3 fold
EC50 (M), Jurkat/NF-κB-Luc reporter with pulsed T2 cells [7]: > 2e-08 M
Fold change, Jurkat/NF-κB-Luc reporter with pulsed T2 cells [7]: 1 fold
EC50 (M), Jurkat/NF-κB-Luc reporter with pulsed T2 cells [8]: > 2e-08 M
Fold change, Jurkat/NF-κB-Luc reporter with pulsed T2 cells [8]: 1.9 fold
EC50 (M), Jurkat/NF-κB-Luc reporter with pulsed T2 cells [9]: > 2e-08 M
Fold change, Jurkat/NF-κB-Luc reporter with pulsed T2 cells [9]: 1.1 fold
EC50 (M), Jurkat/NF-κB-Luc reporter with pulsed T2 cells [10]: > 2e-08 M
Fold change, Jurkat/NF-κB-Luc reporter with pulsed T2 cells [10]: 1.2 fold
EC50 (M), Jurkat/NF-κB-Luc reporter with pulsed T2 cells [11]: > 2e-08 M
Fold change, Jurkat/NF-κB-Luc reporter with pulsed T2 cells [11]: 1.2 fold
EC50 (M), Jurkat/NF-κB-Luc reporter with pulsed T2 cells [12]: > 2e-08 M
Fold change, Jurkat/NF-κB-Luc reporter with pulsed T2 cells [12]: 2.1 fold
EC50 (M), Jurkat/NF-κB-Luc reporter with pulsed T2 cells [13]: 3.3e-10 M
Fold change, Jurkat/NF-κB-Luc reporter with pulsed T2 cells [13]: 40.4 fold
EC50 (M), Jurkat/NF-κB-Luc reporter with pulsed T2 cells [14]: > 2e-08 M
Fold change, Jurkat/NF-κB-Luc reporter with pulsed T2 cells [14]: 1.6 fold
EC50 (M), Jurkat/NF-κB-Luc reporter with pulsed T2 cells [15]: > 2e-08 M
Fold change, Jurkat/NF-κB-Luc reporter with pulsed T2 cells [15]: 1 fold
S/N ratio [16]: 1
S/N ratio [17]: 244
S/N ratio [18]: 1
S/N ratio [19]: 1
S/N ratio [20]: 1
S/N ratio [21]: 5
S/N ratio [22]: 1
S/N ratio [23]: 1
S/N ratio [24]: 1
S/N ratio [25]: 1
S/N ratio [26]: 1
S/N ratio [27]: 1
S/N ratio [28]: 110
S/N ratio [29]: 1
S/N ratio [30]: 1
B1: bsAb6043 (bispecific antibody, V domains shown)
VH 1: QVQLVESGGGLVKPGGSLRLSCAASGFTFSEYYLTWIRQAPGKGLDWIAYISSSGYNIYYADSVKDRFTISRDNGKNSLFLQMNNLRAEDTAVYFCAREGVTDGMDVWGQGTTVTVSS
VH 2: EVQLVESGGGLVQPGRSLRLSCAASGFTFDDYSMHWVRQAPGKGLEWVSGISWNSGSKGYADSVKGRFTISRDNAKNSLYLQMNSLRAEDTALYYCAKYGSGYGKFYHYGLDVWGQGTTVTVSS
VL: DIQMTQSPSSLSASVGDRVTITCRASQSIDTFLNWYQQKPGKVPKLLIYAASNLESGVPSRFSGSGSGTVFTLTISRLQPEDFATYYCQQSYSIPPITFGQGTRVEIK
notes: Only variable regions are tied to the bispecific; also called MAGE-A4×CD3 (7221G) bispecific antibody
